B1: AKT3 (protein)
chain: MSDVTIVKEGWVQKRGEYIKNWRPRYFLLKTDGSFIGYKEKPQDVDLPYPLNNFSVAKCQLMKTERPKPNTFIIRCLQWTTVIERTFHVDTPEEREEWTEAIQAVADRLQRQEEERMNCSPTSQIDNIGEEEMDASTTHHKRKTMNDFDYLKLLGKGTFGKVILVREKASGKYYAMKILKKEVIIAKDEVAHTLTESRVLKNTRHPFLTSLKYSFQTKDRLCFVMEYVNGGELFFHLSRERVFSEDRTRFYGAEIVSALDYLHSGKIVYRDLKLENLMLDKDGHIKITDFGLCKEGITDAATMKTFCGTPEYLAPEVLEDNDYGRAVDWWGLGVVMYEMMCGRLPFYNQDHEKLFELILMEDIKFPRTLSSDAKSLLSGLLIKDPNKRLGGGPDDAKEIMRHSFFSGVNWQDVYDKKLVPPFKPQVTSETDTRYFDEEFTAQTITITPPEKYDEDGMDCMDNERRPHFPQFSYSASGRE
modifications: left off: small tags and cut ends
B2: CSF1R (protein)
chain: YKYKQKPKYQVRWKIIESYEGNSYTFIDPTQLPYNEKWEFPRNNLQFGKTLGAGAFGKVVEATAFGLGKEDAVLKVAVKMLKSTAHADEKEALMSELKIMSHLGQHENIVNLLGACTHGGPVLVITEYCCYGDLLNFLRRKAEAMLGPSLSPGQDPEGGVDYKNIHLEKKYVRRDSGFSSQGVDTYVEMRPVSTSSNDSFSEQDLDKEDGRPLELRDLLHFSSQVAQGMAFLASKNCIHRDVAARNVLLTNGHVAKIGDFGLARDIMNDSNYIVKGNARLPVKWMAPESIFDCVYTVQSDVWSYGILLWEIFSLGLNPYPGILVNSKFYKLVKDGYQMAQPAFAPKNIYSIMQACWALEPTHRPTFQQICSFLQEQAQEDRRERDYTNLPSSSRSGGSGSSSSELEEESSSEHLTCCEQGDIAQPLLQPNNYQFC
modifications: left off: small tags and cut ends
B3: AKT2 (protein)
chain: MNEVSVIKEGWLHKRGEYIKTWRPRYFLLKSDGSFIGYKERPEAPDQTLPPLNNFSVAECQLMKTERPRPNTFVIRCLQWTTVIERTFHVDSPDEREEWMRAIQMVANSLKQRAPGEDPMDYKCGSPSDSSTTEEMEVAVSKARAKVTMNDFDYLKLLGKGTFGKVILVREKATGRYYAMKILRKEVIIAKDEVAHTVTESRVLQNTRHPFLTALKYAFQTHDRLCFVMEYANGGELFFHLSRERVFTEERARFYGAEIVSALEYLHSRDVVYRDIKLENLMLDKDGHIKITDFGLCKEGISDGATMKTFCGTPEYLAPEVLEDNDYGRAVDWWGLGVVMYEMMCGRLPFYNQDHERLFELILMEEIRFPRTLSPEAKSLLAGLLKKDPKQRLGGGPSDAKEVMEHRFFLSINWQDVVQKKLLPPFKPQVTSEVDTRYFDDEFTAQSITITPPDRYDSLGLLELDQRTHFPQFSYSASIRE
modifications: left off: small tags and cut ends

Tested on: kinases of Table 6 on Myelin Basic Protein (MBP)
Experiment: Kinase assay using MBP substrate, ProQ Diamond stain (Table 6)
Type: biochemical
Conditions: kinase printed on MBP-coated slide; 20 uM ATP, 30° C.; ProQ Diamond Microarray Stain; graded Strong/Weak/Negative
Summary of the method: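 Reactions ran at 30° C. with 20 uM ATP, 4 mM MgCl2 and 5% DMSO in HEPES pH 7.5, inhibitor added or omitted. Kinases had been arrayed onto slide-bound dephosphorylated bovine MBP; phospho-signal read after ProQ Diamond staining.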

Row | Molecule | MBP Kinase Activity
1 | B1 | Strong
2 | B2 | Strong
3 | B3 | Strong

From US20090099029A1, “Methods and substrates for conducting assays” (Invitrogen Corporation, priority 2005, published 2009)
